Laboratory results taken from the nanobody polyreactivity screen of Harvey et al. (2022).

Assay: yeast display, Sf9 membrane polyspecificity reagent, FACS + sequencing; frameworks hold sequencing errors
Summary of the method: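 Sorting gates, low and high (top ~1%), were placed on anti-HA fluorescence to track expression and on streptavidin fluorescence to track reagent binding. A clone's polyreactivity label is taken from the gate it came out of. The reagent was 10% biotinylated, detergent-solubilized Sf9 membrane, applied for 1 hour at 4 °C to galactose-induced yeast display cells.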

Sequence | polyreactivity (PSR sort gate)
QVQLVESGGGLVQAGGSLRLSCAASGSIFSPYTMGWYRQAPGKEREFVAAIRWTTGSTYYADSVKGRFTISRDNAKNTVYLQMNSLKPEDTAVYYCAADPSYRSRLFRSYEYDYWGQGTQVTVSS | high polyreactivity
QVQVLESGGGLFQAGGRLRLSCAASGRTFRSYAMGWYRQAPGKERELVAAIRRGGSTNYADSVKGRFTISRDNAKNTVYLQMNSEKPEDTAVYYCAARGWSYRSVGYMDYWGQGTQVTVSS | high polyreactivity
QVQLVESGGGLVQAGGSLRLSCAASGSTFRDYDMGWYRQAPGKERELVAAISRSGGRTYYADSVKGRFTISRDNAKNTVYLQMNSLKPEDTAVYYCAARRYTRRANPAYPYEYWGQGTQVTVSS | high polyreactivity
QVQLVESGGGLVQAGGSLRLSCAASGGIFSSYAMGWYRPAPGKERELVAAIDSDGTTYYADSVKGRFTISRDNAKNTVYLQMNSLKPEDTAVYYCATGYPVRYRGYLNWSYYAYDYWGQGTQVTVSS | low polyreactivity
QVQLVESGGGLVQAGGSLRLSCAASGRTFYPYTMGWYRQAPGKEMELVAAITTSTGNTYYADSVKGRFTISRDNAKNNVYLQMNILKPEDTSVYYCAADTVWRLDYWGQGTKVTVSS | low polyreactivity
QVQLVESGGGLVQAGGSLRLSCAASGRIFVYYAMGWYRQAPGKERELVAAITYSVDSTYYADSVKGRFTISRDNAKNTVYLQMNSLKPEDTAVYYCATDVDWAYGYQYEYWGQGTQVTVSS | low polyreactivity
QVQLVESGGGLVQAGGSLRLSCAASGRIFRVNTMGWSRQAPGKERELVAAIRSSGTRPYYADSVKGRFTISRDHAKNTVYLQMNSLIPEDTAVYYCAAEHYWWYVFPSLWGEDDYWGQGTQVTVSS | high polyreactivity
QVQLVESGGGLVQAGGSLRLSCAASGTTFSRYAMGWYRQAPGKEREFVAAISRRAGGTYYADSVKGRFTISRDNAKNTVYLQMNSLKPEDTAVYYCAKVLPRDYIGRATYDYWGQGTQVTVSS | high polyreactivity
QVQLVESGGGLVQAGGSLRLSCAPSGFTFGDYAMGWYRQAPGKERELVAAISWSGSNTYYADSVKGRFTLSRDNAKNTVYLQMNSLKPEDTAVYYCNADYDPEDMDYWGQGTQVTVSS | low polyreactivity
QVQLVESGGGLVQAGGSLRLSCAASGSIFYVYAMGWYRQAPGKERELVAAINTSSGDTYYADSVKGRFTISRDNAKNTVYLQMNSLKPEDTAVYYCNARTRSSYTIGSYLLSYDYWGQGTQVTVSS | high polyreactivity
QVQLVESGGGLVQAGGSLRLSCAASGIIFRWYTMGWFRQAPGKERELVAAITGRGGSTYYADSVKGRFTISRDNAKNTFYLQMNSLIPEDTAVYYCAAEGVRIGTRYDYWGQGTLVTVSS | high polyreactivity
QVQLVESGGGLVQAGGSLRLSCAASGRTFGVNMGWYRQAPGKERELVAGITSGGSTYYADSVKGRFTISRDNAKNTVYLQMNSLKPEDTAVFYCAKSYRGKWSPYYYWGQGTQVTVSS | high polyreactivity
QVQHVESGGSLVQAGGSLRLSCAASGRTFRRYAMGWFRHAPGKAWELVAAIRSDGATYYADSVKGRFTISRDNAKNTVYLQMNSLKPEDTAVYYCNAVYVSSVTGHVDWGQGTQVTVSS | low polyreactivity
QVQLVESGGGLVQAGGSLRLSCAASGRIFVDNTMGWYRQAPGKERELVAVITSGGSTNYADSVKGRFTISRDNAKNTVYLQMNSLKPEDTAVYYCATEPGGYRFDDRPFQYGYWGQGTQVTVSS | low polyreactivity
QVQLVESGGGLVQAGGSLRLSCAASGGTIIGYAMGWYRQAPGKERELVAAITSGGSTYYADSVKGRFTISRDNAKNTVYLQMNSLKPEDTAVYYCAKSYGGLGSIYRFYYWGQGTQVTVSS | low polyreactivity
QVQLVESGGGLVQAGGSLRLSCAASGRIFAVNAMGWYRQAPGKERELVAAISWSGGITRYADSVKGRFTISRDNAKNTVYLQMNSLKPEDTAVYYCNASQWPSRFDYWGQGTQVTVSS | low polyreactivity
QVQLVESGGGLVQAGGSLRLSCAASGRTFYTVYAMGWYRQAPGKERELVAAITRSGGSTYYADSVKGRFTISRDNAKNTLYLQMNSLKPEDTAVYYCAAAPPLAGLGGYYWGQGTQVTVSS | high polyreactivity
QVQLVESGGGLDQAGGSLRLSGAASGRILWYNAMGWYRQAPGKERELVAAISWTGGSTYYADSVKGRFTISRDNAKNTVYLQMNSLKPEDTAVYYCNVDTPYTQGFDQRQGYTFDYWGQGTQVTVSS | low polyreactivity
QVQLVESGGGLVQAGGSLRLSCAASGRIFVNYAMGWYRQAPGKEREFVAGIRVNGGSTYYADSVKGRFTISRDNAKNTVYLQMNSLKPEDTAVYYCAKAYPGTYREYDYWGQGTQVTVSS | high polyreactivity
QVQLVESGGGLVQPGGSLRLSCAASGFTFIRNVMGWYRQAPGKERELVARITYSSGSTYYADSVKGRFTISRDNAKNTVYLQMNSLKPEDTAVYYCAVRLYSYLYNPFNYWGQGTQVTVSS | high polyreactivity
QVQLVESGGGLVQAGGSLRLSCAASGFIFTIYAMGWYRQAPRKERELVAAITWNGGRTYYADSVKGRFTISRDNAKNTVYLQMISLKPEDTAVYYCAARYGRAYDYWGQGTQVTVSS | high polyreactivity
QGQLVESGGGLVQAGGSLRLSCAASGFTFDYYAMGWYRQATGKEREFVAAISSRGDDTYYADSVKGRFTISRDNAKNTVYLQMNSLKPEDTAVYYCAALDPWKPEYDYWGQGTQVTLSS | high polyreactivity

Sequence | polyreactivity (PSR sort gate)
QVQLVESGGGLVQAGGSLRLSCAASGNTFIRNVMGWYRQAPGKERELVAGIRTGGSTFYADSVKGRFTISRDNAKNTVYLQMNSLKPEDTAVYYCNADVGDEGNLPYVIRPMDYWGQGTQVTVSS | low polyreactivity
QVQLVESGGGLVQAGGSLRLSCAASGRIFYSYAMGWYRQAPGKERELVAAITRSVARTYYADSVKGRFTISRDNAKNTVYLQMNCLKPEDTAVYYCAADWYQWGGRYYAPRYYYWGQGTQVTVSS | high polyreactivity
QVQLVESGGGLVQAGGSLRLSCAASGFTFRYYAMGWYRQAPGKERELVAGISWRGGSTNYADSVKGRFTISRDNAKNTVYLQMNSLKPEDTAVYYCNAVSYSFPIHRVRPTWYDYWGQGTQVTVSS | high polyreactivity
QFQLGESGGGLVQAGGSLRLSCAACGSTFYLYAMGWYRQAPGKDRELVAAISKSCGSTYYADSVKGRFTISRDNAKNTVYLQMNSLKPEVTAVYYCATRWIKGRKMDYWGQGTQVTVSS | high polyreactivity
QVQLVESGGGIVQAGGSLRLSCAASGRIFLRNAMGWYRQAPGYEREFVAAMRYSGGRTYYADSVKGRFTISRDNAKNTVYLQMISLNPEDTAVYYCAAEGSSRSSYRKYDYWGQGSQVTVSS | high polyreactivity
QVQLVESGGGLVQAGGSLRLSCAASGFTFYYYAMGWYRQAPGKERELVAAISRSGGSTYYADSVKGRFTISRDNAKNTVYLQMNSLKPEDTAVDYCNKGSRWLRGLDSWGQGTQVTVSS | high polyreactivity
QVQLVESGGGLVQAGGSLRLSCAASGLTSWYYAMGWYRQAPGKERELVAAITSGGSTYYADSVKGRFTISRDNAKNTVYLQMNSLKPEDTAVYYCAKKKRSYYYYPYDYWGQGTQVTVSS | high polyreactivity
QVQLVESGGGLVQAGGSLRLSCAASGRTFAWYTMGWYRQAPGKERELVAAISGSGGSTYYADSVKGRFTISRDNAKNTVYLQMNSLKPEDTAVYYCARRVDSYYGHTRYYYWGQGTQVTVSS | high polyreactivity
QLQLVESGGGLVQAGGSLRLSCAASGFTFSAYAMGSYRQAPGKERELVAAISWSGGSTYYADSVKGRFTISRDNAKNTVYLQRNSLKPEDTAVYYCAADFHSYYRFDYWGQGTQVTVSS | high polyreactivity
QVQLVESGGGLVKAGGSLRLSCAASGFIYKFYAMGWYRQAPRKERELVAAINYSGGSTYYADSVKGRFTISRDNAKNTVYLKMNSLKPEDTAVFYCNALYTYGWYSDDYWGQGTQVTVSS | high polyreactivity
QVQLVESGGGLVQARGSLRLSSSASGSIFKYYAMGRYRHAPGKESELGAAISYSGGTTYYADSVKGRFTISRDNAKNTVYLQMNSLKPEDTAVYDCNARYPNFVVRGYAPYDYWGQGSQVTVSS | low polyreactivity
QVQLVESGGRLVQAGGSLRLSCAASGFIFQYYTMGWYRQAPGKERELVAGISRSGGSTYYADSVKGRFTISRDNAKNTVYLQMNSLKPEDTAVYYCAAKIRTSDMGYWGQGTQVTVSS | high polyreactivity
QVQLVESGGGLVQAGGSLRLSCAASGFILDYNTMGWYRQAPGKERELVAAISSSGDTTYYADSVKGRFTISRDNAKNTVYLQMNSLKPEDTAVYYCDREYGDGYEYWGQGTQVTVSS | low polyreactivity
QVQLVESGGGLVQAGGSLRLSCAASGSIFYPYAMGWYRQAPGKERELVAAIRRSGTTYYADSVKGRFTISRDNAKNTVYLQMNSLKPEDTAVYYCNKVRGQEPSNYDYWGQGTQVTVSS | low polyreactivity
QVQLVESGGGLVQAGGSLRLSCAASGSIFVNYAMGWYRQAPGKERELVAAISTGGGRTFYADSVKGRFTISRDNAKNTVYLQMNSLKPEDTAVYYCNNLGRTEYDYWGQGTQVTVSS | high polyreactivity
QVQLVESGGGLVQAGGTLRLSCAASGSTFVYNAMGWYRQAPGKERDLVATITGGGSTYYADSVKGRFTISRDNAKNTVYLQMNSLKPEDTAVYYCSKRRDSYDVEYDYWGQGTQVTVSS | low polyreactivity
QVQLVESGGGLVQAGGSLRLSCAASGSTFASNAMGWYRQAPGKERELVAAISRSGGTTYYADSVKGRFTISRDNAKNTVYLQMNSLKPEDTAVYYCAVYGYRFYKAVKYYYWGQGTQVTVSS | high polyreactivity
QVQLVESGGGLVQAGGSLRLSCAASGLIFYDNMGWYRQAPGKERELVAAISSSGGSTSYADSVKGRFTISRDNAKKTVYLQMNSLKPEDTAVYYCAAKWSHVRDGPKYDYWGQGTQVTVSS | low polyreactivity
QVQLVESGGGLVQAGGSLRLSCAASGSTFYTYDMGWYRQAPGKERELVASITSGGSTNYADSVKGRFTISRDNAKNTVYFQMYCMKPVDTAVYYCAVGTYTIYSGTLYDYKYYWGQGTVVTVSS | low polyreactivity
QVQLVESGGGLVQAGGSLRLSCAASGRTFRSNAMGWYRQAPGKERELVAAIRNSDGSTNYADSVKGRFTISRDNAKNNVYLQMNSLKPEDTAVYYCAASSTVGGITRILYYYWGQGTQVTVSS | high polyreactivity
QVQLVDSGGGLVQAGGSLRLSCAASGRIFRSYAMGWYRQAPGKERELVAGISSTGGNTYYADSVKGRFTISRDNAKNTVYLQMNSLKPEDTAVYYCAAYWFRGYKYWGQGTQVTVSS | high polyreactivity
